According to US20110059095A1 (Regeneron, published 2011):
Substitutions are numbered along the chain they refer to. One block for each binder: values may come before it.

Assays:
[1] = target: T1, Peptide E (mouse PAR-2), unbiotinylated (Mouse (Mus musculus)); assay: peptide ELISA titration; ELISA titration, antibody 13.3 nM to 0.22 pM, sigmoidal fit
T1 construct: also called Peptide E No Biotin
T1 peptide: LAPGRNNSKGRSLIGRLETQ
Experimental: Anti-PAR-2 antibodies were tested for their ability to bind to the PAR-2 peptides. Various PAR-2 Peptides (Table 3) were coated onto 96-well plates at a concentration of 2 μg/ml and incubated overnight followed by blocking in a suitable blocking agent for one hour. […] Purified anti-PAR-2 antibodies were added to the plate coated with PAR-2 peptides to a final concentration ranging from 0.2 to 2.0 μg/ml and incubated for one hour at room temperature. Detection of bound antibodies was determined with Horse-Radish Peroxidase (HRP) conjugated anti-mouse or human IgG (Jackson Immuno Research Lab, West Grove, Pa.) and developed by standard colorimetric response using tetramethylbenzidine (TMB) substrate. Absorbance was read at OD₄₅₀ for 0.1 second.
In another experiment, selected anti-PAR-2 antibodies cloned onto human IgG4 were tested for binding to unbiotinylated and biotinylated forms of PAR-2 peptides (Peptides A, E, F and G; as described above). […] Absorbance values at 450 nm were analyzed using a sigmoidal dose-response model in GraphPad Prism (GraphPad Software, Inc., La Jolla, Calif.) and EC₅₀ values were reported (Table 9). EC₅₀ values are defined as the antibody concentration required to achieve 50% maximal binding to PAR-2 peptide.

[2] = target: T2, Peptide D (N-terminal domain of human PAR-2-mouse IgG2a) (Human); assay: peptide ELISA
T2 chain: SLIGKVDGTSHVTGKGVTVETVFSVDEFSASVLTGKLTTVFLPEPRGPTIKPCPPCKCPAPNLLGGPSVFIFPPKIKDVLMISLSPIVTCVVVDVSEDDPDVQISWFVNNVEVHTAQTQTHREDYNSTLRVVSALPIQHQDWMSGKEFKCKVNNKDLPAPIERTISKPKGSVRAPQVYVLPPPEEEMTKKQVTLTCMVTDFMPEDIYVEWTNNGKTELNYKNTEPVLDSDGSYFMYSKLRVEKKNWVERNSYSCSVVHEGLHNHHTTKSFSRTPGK

[3] = target: T3, C-terminal biotinylated human PAR-2 peptide SEQ ID NO:880 (Asp-43 to Ala) (human, not fully specified; C-terminal biotin (K-B)); assay: alanine scan by biolayer interferometry (Octet Red): C-terminal biotin peptide on streptavidin tips, 200 nM antibody; T1/2 relative to wild-type peptide SEQ ID NO:871
T3 construct: alanine-scan mutant
T3 peptide: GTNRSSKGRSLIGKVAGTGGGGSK
Experimental: (§1) In order to more particularly identify the amino acids of PAR-2 with which the PAR-2 antibodies interact, an alanine scanning study was carried out using peptides comprising the activating PAR-2 protease cleavage site.
(§2) The ability of each peptide mutant to bind to PAR-2 antibodies was measured using biolayer interferometry (Octet Red; ForteBio). Each peptide (2.5 μg/ml) was captured on streptavidin coated biosensor tips (Octet SA sensor) for 10 seconds. To measure binding and dissociation between each peptide and PAR-2 antibody, the peptide-coated biosensors were contacted with 200 nM solutions of PAR-2 antibodies for 5 minutes (binding) followed by transfer to buffer with no antibody for 10 min (dissociation). […] The results are expressed as percent binding and percent T_{1/2} relative to WT peptide (Tables 24-28).

[4] = target: T4, C-terminal biotinylated human PAR-2 peptide SEQ ID NO:876 (Ile-39 to Ala) (human, not fully specified; C-terminal biotin (K-B)); assay: as above
T4 construct: alanine-scan mutant
T4 peptide: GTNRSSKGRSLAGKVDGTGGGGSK
Experimental: as §1, §2

[5] = target: T5, C-terminal biotinylated human PAR-2 peptide SEQ ID NO:878 (Lys-41 to Ala) (human, not fully specified; C-terminal biotin (K-B)); assay: as above
T5 construct: alanine-scan mutant
T5 peptide: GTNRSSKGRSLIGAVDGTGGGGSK
Experimental: as §1, §2

[6] = target: T6, C-terminal biotinylated human PAR-2 peptide SEQ ID NO:877 (Gly-40 to Ala) (human, not fully specified; C-terminal biotin (K-B)); assay: as above
T6 construct: alanine-scan mutant
T6 peptide: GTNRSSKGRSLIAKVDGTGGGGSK
Experimental: as §1, §2

Peptide J (pig PAR-2) = target: T7, Peptide J (pig PAR-2) (Pig (Sus scrofa)); assay: SPR, antibody captured
T7 peptide: GTSRPSKGRSLIGKADNT
Experimental: Equilibrium dissociation constants (KD values) for antigen binding to selected purified PAR-2 antibodies were determined by surface kinetics using a real-time surface plasmon resonance biosensor assay. Antibody was captured on either a rabbit anti-mouse IgG polyclonal antibody (GE Healthcare, Piscataway, N.J.) surface or a goat anti-human IgG polyclonal antibody (Jackson Immuno Research Lab, West Grove, Pa.) surface created through direct amine chemical coupling to a BIACORE™ CM5 sensor chip to form a captured antibody surface. […] Antigen-antibody binding and dissociation were monitored in real time at room temperature. Kinetic analysis was performed to calculate KD and half-life of antigen/antibody complex dissociation (Table 10). For those antibodies where no T_{1/2} value is shown, steady state analysis was used to calculate the KD value. NB: no binding observed under current experimental conditions. ND: not determined.

B1: H4H579P (antibody, human IgG4, V domains shown)
VH: QVQLVESGGGVVQPGRSLRLSCVASGFTFSRYGMHWVRQAPGKGLEWLIVISYDGINKYYADSVKGRFTISRDNSKNTVYLQMNSLRAEDTGVYYCAKGDFWSGYFDYWGQGTLVTVSS
VL: DIVMTQTPLSSPVTLGQPASISCRSSQSLVHSDGNTYLSWLHQRPGQPPRLLIYKISNRFSGVPDRFSGSGAGTDFTLQISRVEAEDVGIYYCMQGTQFPTFGGGTKVEIK
notes: also called H1H579P variable regions
- EC50 [1]: 0.713 nM

B5: H4H583P (antibody, human IgG4, V domains shown)
VH: QVQLVESGGGVVQPGMSLRLSCTASGFTFRRYGMHWVRQAPGKGLEWVAVIWYDGSNKYYADSVKGRFTITRDNSKNTLYLQMNSLRAEDTAIYFCASEITIGDWFDPRGQGTLVTVSS
VL: AIQMTQSPSSLSASVGDRVTITCRASQGIRNDLGWFQQKPGKVPKLLIYAASTLHSGVPSRFSGSGFGTDFTLTISSLQPEDFATYYCLQDFNYPLTFGGGTKVEIK
notes: also called H1H583P variable regions
- Kd (Peptide J (pig PAR-2)): 190 nM
- T1/2 (Peptide J (pig PAR-2)): 9.6 s

Further lines, results first:

- EC50 [1]: 0.308 nM
B2: H4H585P (antibody, human IgG4, V domains shown)
VH: B1 VH with G92A
VL: B1 VL
notes: also called H1H585P variable regions

- binding result [2]: binds
- percent of T1/2 relative to wild-type peptide (average of duplicate experiments) [3]: 20%
- percent of T1/2 relative to wild-type peptide (average of duplicate experiments) [4]: 0.1%
- percent of T1/2 relative to wild-type peptide (average of duplicate experiments) [5]: 56%
- percent of T1/2 relative to wild-type peptide (average of duplicate experiments) [6]: 24%
B3: H4H581P (antibody, human IgG4, V domains shown)
VH: B1 VH with M34I, L48V, G92A
VL: B1 VL with G96A
notes: also called mAb H4H581P; H1H581P variable regions

- binding result [2]: binds
- percent of T1/2 relative to wild-type peptide (average of duplicate experiments) [3]: 4.5%
- percent of T1/2 relative to wild-type peptide (average of duplicate experiments) [4]: 22%
- percent of T1/2 relative to wild-type peptide (average of duplicate experiments) [5]: 84%
- percent of T1/2 relative to wild-type peptide (average of duplicate experiments) [6]: 0.5%
- binding result (Peptide J (pig PAR-2)): no binding
B4: H4H588N (antibody, human IgG4, V domains shown)
VH: EVQLLESGGGLVQPGGSLRLSCAASGFTFSSYAMTWVRQAPGKGLYWVSAISGGRGSAYYADSVKGRFTISRDNSKNTLYLQMNSLRAEDTAVYYCAKEGDSGYDLAYWGRGTLVTVSS
VL: DIQMTQSPSSLSASVGDRVTITCRARQGISNNLAWLQQKPGKAPKSLIYAASSLQSGIPSKFSGSGSGTYFTLTISSLQPEDFATYYCQQYKSSPLTFGGGTKVEIK
notes: also called H2M588N variable regions
